Measurements published in publication PMC5669353 (Biochemistry and Biophysics Reports, 2015).

How the values were obtained:
lactoperoxidase [1] = molecular target: T1, lactoperoxidase (Bos taurus, UniProt P80025); assay type: biochemical
lactoperoxidase [2] = molecular target: T1, lactoperoxidase; conditions: read-out: Km, / µM; 80 uM H2O2, 2 mM SCN-, pH 7.4, 37 C; substrate
[3] = system: Oc1cc(O)c2c(c1)O[C@H](c1ccc(O)c(O)c1)[C@H](O)C2; experiment: purified protein; conditions: heme
OCCc1ccc(O)c(O)c1 = experiment: purified protein; conditions: heme substrate channel of LPO
[4] = system: O=c1cc(-c2ccc(O)c(O)c2)oc2cc(O)cc(O)c12; experiment: purified protein; conditions: heme
[5] = system: O=C(O)/C=C/c1ccc(O)c(O)c1; experiment: purified protein; conditions: heme
[6] = system: O=c1cc(-c2ccc(O)cc2)oc2cc(O)cc(O)c12; experiment: purified protein; conditions: heme
[7] = system: O=c1c(O)c(-c2ccc(O)c(O)c2)oc2cc(O)cc(O)c12; experiment: purified protein; conditions: heme
[8] = system: O=C1C[C@@H](c2ccc(O)c(O)c2)Oc2cc(O)cc(O)c21; experiment: purified protein; conditions: heme
O=C(O)c1ccc(O)c(O)c1 = experiment: purified protein; conditions: heme
O=C(O)/C=C/c1cccc(O)c1 = experiment: purified protein, by the assay type
O=C(O)c1cc(O)c(O)c(O)c1 = experiment: purified protein, by the assay type
O=C(O)c1ccc(O)cc1O = experiment: purified protein, by the assay type
O=C(O)c1ccc(O)cc1 = experiment: purified protein, by the assay type
O=C(O)c1cc(O)cc(O)c1 = experiment: purified protein, by the assay type
O=C(O)c1ccc(O)c(O)c1O = experiment: purified protein, by the assay type
O=C(O)c1ccccc1O = experiment: purified protein, by the assay type
OCCc1ccc(O)cc1 = experiment: purified protein, by the assay type
[9] = system: O=C1C[C@@H](c2ccc(O)cc2)Oc2cc(O)cc(O)c21; experiment: purified protein, by the assay type
O=C(O)c1c(O)cccc1O = experiment: purified protein, by the assay type
COc1cc(C(=O)O)ccc1O = experiment: purified protein, by the assay type
O=C(O)c1cccc(O)c1O = experiment: purified protein, by the assay type
O=C(O)/C=C/c1ccc(O)cc1 = experiment: purified protein, by the assay type
O=C(O)c1cccc(O)c1 = experiment: purified protein, by the assay type
O=C(O)c1cc(O)ccc1O = experiment: purified protein, by the assay type
[10] = system: O=C1C[C@@H](c2ccc(O)c(O)c2)Oc2cc(O)cc(O)c21; experiment: purified protein, by the assay type
[11] = system: O=C1c2c(O)cc(O)cc2O[C@H](c2ccc(O)c(O)c2)[C@H]1O; experiment: purified protein, by the assay type
COc1ccc(C(=O)O)cc1O = experiment: purified protein, by the assay type

Work on `O=C(O)c1c(O)cc(O)cc1O` [2,4,6-trihydroxybenzoic acid] yielded an IC50 (lactoperoxidase [1]) of 36.7 ± 9.6 µM.

In the case of `COc1ccc(C(=O)O)cc1OC` [3,4-dimethoxybenzoic acid], the Km (lactoperoxidase [2]) is reported as 981 ± 69.8 µM.

Compound `O=c1cc(-c2ccccc2)oc2cc(O)cc(O)c12` [chrysin] has an IC50 (lactoperoxidase [1]) of 0.23 ± 0.15 µM.

lactoperoxidase (Bos taurus) was tested, and the Km [3] was 0.6 ± 0.0 µM, the kcat [3] was 41.4 s⁻¹ and the kcat/Km [3] was 6.84e+07 M⁻¹ s⁻¹. For the same compound, the Km (OCCc1ccc(O)c(O)c1) was 1.6 ± 0.1 µM, the kcat (OCCc1ccc(O)c(O)c1) was 67 s⁻¹ and the kcat/Km (OCCc1ccc(O)c(O)c1) was 4.21e+07 M⁻¹ s⁻¹. It also gave a Km [4] of 0.2 ± 0.0 µM, a kcat [4] of 91.6 s⁻¹ and a kcat/Km [4] of 4.72e+08 M⁻¹ s⁻¹. The Km [5] was 6.9 ± 0.3 µM, the kcat [5] was 37.2 s⁻¹ and the kcat/Km [5] was 5.4e+06 M⁻¹ s⁻¹. The Km [6] was 0.1 ± 0.0 µM, the kcat [6] was 13.1 s⁻¹ and the kcat/Km [6] was 1.22e+08 M⁻¹ s⁻¹. For the same compound, the Km [7] was 1.7 ± 0.2 µM, the kcat [7] was 102 s⁻¹ and the kcat/Km [7] was 6.07e+07 M⁻¹ s⁻¹. It also gave a Km [8] of 0.358 ± 0.005 µM, a Km (O=C(O)c1ccc(O)c(O)c1) of 63.9 ± 51.4 µM and a kcat (O=C(O)c1ccc(O)c(O)c1) of 59.2 s⁻¹. It also gave a kcat/Km (O=C(O)c1ccc(O)c(O)c1) of 930000 M⁻¹ s⁻¹, a Km (O=C(O)/C=C/c1cccc(O)c1) of 37.8 ± 8.9 µM and a kcat (O=C(O)/C=C/c1cccc(O)c1) of 24 s⁻¹. It also gave a kcat/Km (O=C(O)/C=C/c1cccc(O)c1) of 630000 M⁻¹ s⁻¹, a Km (O=C(O)c1cc(O)c(O)c(O)c1) of 176.8 ± 0.0 µM and a kcat (O=C(O)c1cc(O)c(O)c(O)c1) of 30.9 s⁻¹. The kcat/Km (O=C(O)c1cc(O)c(O)c(O)c1) was 180000 M⁻¹ s⁻¹, the Km (O=C(O)c1ccc(O)cc1O) was 119.6 ± 8.3 µM and the kcat (O=C(O)c1ccc(O)cc1O) was 7 s⁻¹. The kcat/Km (O=C(O)c1ccc(O)cc1O) was 60000 M⁻¹ s⁻¹, the Km (O=C(O)c1ccc(O)cc1) was 119.6 ± 8.1 µM and the kcat (O=C(O)c1ccc(O)cc1) was 16.7 s⁻¹. It also gave a kcat/Km (O=C(O)c1ccc(O)cc1) of 140000 M⁻¹ s⁻¹, a Km (O=C(O)c1cc(O)cc(O)c1) of 118.0 ± 7.9 µM and a kcat (O=C(O)c1cc(O)cc(O)c1) of 22.7 s⁻¹. It also gave a kcat/Km (O=C(O)c1cc(O)cc(O)c1) of 190000 M⁻¹ s⁻¹, a Km (O=C(O)c1ccc(O)c(O)c1O) of 84.8 ± 0.0 µM and a kcat (O=C(O)c1ccc(O)c(O)c1O) of 24.5 s⁻¹. For the same compound, the kcat/Km (O=C(O)c1ccc(O)c(O)c1O) was 290000 M⁻¹ s⁻¹, the Km (O=C(O)c1ccccc1O) was 1638.4 ± 439.3 µM and the Km (OCCc1ccc(O)cc1) was 4.5 ± 0.0 µM. It also gave a kcat (OCCc1ccc(O)cc1) of 39 s⁻¹, a kcat/Km (OCCc1ccc(O)cc1) of 8.73e+06 M⁻¹ s⁻¹ and a Km [9] of 0.2 ± 0.0 µM. It also gave a kcat [9] of 19 s⁻¹, a kcat/Km [9] of 1.03e+08 M⁻¹ s⁻¹ and a Km (O=C(O)c1c(O)cccc1O) of 149.1 ± 51.4 µM. For the same compound, the kcat (O=C(O)c1c(O)cccc1O) was 14.8 s⁻¹, the kcat/Km (O=C(O)c1c(O)cccc1O) was 100000 M⁻¹ s⁻¹ and the Km (COc1cc(C(=O)O)ccc1O) was 948.4 ± 0.2 µM. For the same compound, the kcat (COc1cc(C(=O)O)ccc1O) was 78.5 s⁻¹, the kcat/Km (COc1cc(C(=O)O)ccc1O) was 80000 M⁻¹ s⁻¹ and the Km (O=C(O)c1cccc(O)c1O) was 71.3 ± 1.3 µM. It also gave a kcat (O=C(O)c1cccc(O)c1O) of 17.9 s⁻¹, a kcat/Km (O=C(O)c1cccc(O)c1O) of 250000 M⁻¹ s⁻¹ and a Km (O=C(O)/C=C/c1ccc(O)cc1) of 35.1 ± 0.1 µM. It also gave a kcat (O=C(O)/C=C/c1ccc(O)cc1) of 11 s⁻¹, a kcat/Km (O=C(O)/C=C/c1ccc(O)cc1) of 310000 M⁻¹ s⁻¹ and a Km (O=C(O)c1cccc(O)c1) of 144.2 ± 28.9 µM. For the same compound, the kcat (O=C(O)c1cccc(O)c1) was 36.5 s⁻¹, the kcat/Km (O=C(O)c1cccc(O)c1) was 250000 M⁻¹ s⁻¹ and the Km (O=C(O)c1cc(O)ccc1O) was 304.2 ± 0.1 µM. For the same compound, the kcat (O=C(O)c1cc(O)ccc1O) was 22.4 s⁻¹, the kcat/Km (O=C(O)c1cc(O)ccc1O) was 70000 M⁻¹ s⁻¹ and the Km [10] was 0.4 ± 0.0 µM. For the same compound, the kcat [10] was 52.4 s⁻¹, the kcat/Km [10] was 1.46e+08 M⁻¹ s⁻¹ and the Km [11] was 0.8 ± 0.0 µM. The kcat [11] was 48.2 s⁻¹, the kcat/Km [11] was 6.3e+07 M⁻¹ s⁻¹ and the Km (COc1ccc(C(=O)O)cc1O) was 803.5 ± 147.2 µM. For the same compound, the kcat (COc1ccc(C(=O)O)cc1O) was 67.7 s⁻¹ and the kcat/Km (COc1ccc(C(=O)O)cc1O) was 80000 M⁻¹ s⁻¹.
